Here are results for one molecule from paper PMC11887224.

This data set deals with Trop-2 (recombinant, His-tagged) (UniProt P09758 27-274). Briefly: SPR. For orientation: In SPR one partner is held on a chip, and binding of the other changes the refractive index at the surface.
Chain of Trop-2 (recombinant, His-tagged) (P09758 27-274): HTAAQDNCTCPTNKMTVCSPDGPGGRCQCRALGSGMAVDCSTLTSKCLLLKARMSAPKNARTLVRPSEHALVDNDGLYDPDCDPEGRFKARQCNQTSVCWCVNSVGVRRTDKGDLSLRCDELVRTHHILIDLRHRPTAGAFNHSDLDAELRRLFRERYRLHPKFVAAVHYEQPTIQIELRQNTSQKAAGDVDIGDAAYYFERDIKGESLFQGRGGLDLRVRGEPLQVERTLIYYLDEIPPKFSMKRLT

B1: TRPFL (structured_DNA)
DNA: CTACGGTGCCTTGAAGTGACTCGTTCCGTCCCTGGCCGCTCCTACTATCGATGTGTCATAGCAGGTCACTTCCAGG
As to B1, the equilibrium dissociation constant (Kd) (commonly the constant that tells how readily two partners part at equilibrium) was 110 nM.
